Where two headings read alike, the source gives them in different places.
Legend:
PSMA+ LNCaP cells = test: Internalization experiments (specific cell surface bound and internalized fractions); assay type: cell-based; conditions: 68Ga-labeled compound 30 nM, 45 min
Protocol: (§1) PSMA^+ LNCaP cells (ATCC CRL-1740) were cultured in RPMI medium supplemented with 10% fetal calf serum and 2 mmol/L L-glutamine (all from PAA). Cells were grown at 37° C. in humidified air with 5% CO2 and were harvested using trypsin-ethylenediaminetetraacetic acid (trypsin-EDTA; 0.25% trypsin, 0.02% EDTA, Invitrogen).
For internalization experiments, 10^5 cells per well were seeded in poly-L-lysine coated 24-well cell culture plates 24 h before incubation. After washing, the cells were incubated with 30 nM of the radiolabeled compound for 45 min at 37° C. and at 4° C., respectively. Cellular uptake was terminated by washing 3 times with 1 mL of ice-cold PBS. To remove surface-bound radioactivity, cells were incubated twice with 0.5 mL glycine-HCl in PBS (50 mM, pH=2.8) for 5 min. The cells were washed with 1 mL of ice-cold PBS and lysed using 0.3 N NaOH (0.5 mL). The surface-bound and the internalized fractions were measured in a gamma counter. The cell uptake was calculated as percent of the initially added radioactivity bound to 10^5 cells [% ID/10^5 cells].

PSMA = target: T1, PSMA (Homo sapiens, UniProt Q04609); test: Competitive cell binding assay on LNCaP cells (PSMA binding affinity); conditions: competition against 0.2 nM 68Ga-labeled PSMA-10
T1 construct: endogenous in cells; host or cells: LNCaP cells (ATCC CRL-1740)
T1 sequence (Q04609 whole entry): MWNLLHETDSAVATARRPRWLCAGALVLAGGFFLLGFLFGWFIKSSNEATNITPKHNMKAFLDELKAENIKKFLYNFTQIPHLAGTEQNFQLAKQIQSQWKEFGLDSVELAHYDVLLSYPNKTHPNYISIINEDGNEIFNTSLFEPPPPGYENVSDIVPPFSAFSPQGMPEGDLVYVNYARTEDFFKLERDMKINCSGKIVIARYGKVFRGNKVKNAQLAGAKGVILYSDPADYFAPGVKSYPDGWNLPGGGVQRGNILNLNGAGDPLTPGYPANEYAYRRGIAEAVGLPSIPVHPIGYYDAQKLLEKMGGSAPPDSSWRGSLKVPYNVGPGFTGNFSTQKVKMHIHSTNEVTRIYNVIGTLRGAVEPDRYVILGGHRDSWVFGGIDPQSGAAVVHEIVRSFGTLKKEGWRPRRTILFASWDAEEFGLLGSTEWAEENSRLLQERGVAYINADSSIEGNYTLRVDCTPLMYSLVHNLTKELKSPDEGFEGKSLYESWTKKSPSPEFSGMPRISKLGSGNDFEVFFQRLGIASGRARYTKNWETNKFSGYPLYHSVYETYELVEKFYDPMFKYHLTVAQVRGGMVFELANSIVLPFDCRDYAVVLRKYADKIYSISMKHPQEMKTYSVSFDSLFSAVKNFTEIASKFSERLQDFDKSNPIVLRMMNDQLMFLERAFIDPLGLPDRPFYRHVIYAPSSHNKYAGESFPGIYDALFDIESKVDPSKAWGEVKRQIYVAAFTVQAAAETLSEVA
Protocol: as §1
The competitive cell binding assay and internalization experiments were performed as described previously (4). Briefly, the cells (10^5 per well) were incubated with a 0.2 nM solution of ^68Ga-labeled radioligand [Glu-urea-Lys(Ahx)]2-HBED-CC (PSMA-10, precursor ordered from ABX, Radeberg, Germany) in the presence of 12 different concentrations of analyte (0-5000 nM, 100 μL/well). After incubation, the mixture was removed and the wells were washed 3 times with PBS using a multiscreen vacuum manifold (Millipore, Billerica, Mass.). Cell-bound radioactivity was measured using a gamma counter (Packard Cobra II, GMI, Minnesota, USA). The 50% inhibitory concentration (IC50) values were calculated by fitting the data using a nonlinear regression algorithm (GraphPad Software).

[1] = Biodistribution (organ distribution) of 68Ga-labeled compounds; assay type: in vivo, mice; conditions: male, BALB/c nu/nu, mouse, iv, 60 pmol, total radioactivity
Protocol: (§2) The precursor peptides [1 nmol in HEPES buffer (580 mg/ml), 90 μL] were added to 40 μL [^68Ga]Ga^3+ eluate (˜40 MBq). The pH was adjusted to 3.8 using 30% NaOH and 10% NaOH, respectively. The reaction mixture was incubated at 98° C. for 10 minutes. The radiochemical yield (RCY) was determined by HPLC. For the experimental tumor models 5×10^6 cells of LNCaP (in 50% Matrigel; Becton Dickinson, Heidelberg, Germany) were subcutaneously inoculated into the right trunk of 7- to 8-week-old male BALB/c nu/nu mice (Charles River). The tumors were allowed to grow until approximately 1 cm^3 in size. The ^68Ga-labeled compounds were injected into a tail vein (1-2 MBq; 60 pmol). […] Organs of interest were dissected, blotted dry, and weighed. The radioactivity was measured using a gamma counter and calculated as % ID/g. All animal experiments complied with the current laws of the Federal Republic of Germany.

[2] = tested on: LNCaP-tumor bearing balb/c nu/nu mice; test: as above; assay type: in vivo
Protocol: as §2

[3] = listed as PSMA-HBED-CC-PEG2-IRDye8000CW
[4] = in vivo, Organ distribution Blood
[5] = in vivo, Organ distribution Brain
[6] = in vivo, Organ distribution Heart
[7] = in vivo, Organ distribution Intestine
[8] = in vivo, Organ distribution Kidney
[9] = in vivo, Organ distribution Liver
[10] = in vivo, Organ distribution Lung
[11] = in vivo, Organ distribution Muscle
[12] = in vivo, Organ distribution Spleen

For CC1(C)C(/C=C/C2=C(Oc3ccc(S(=O)(=O)O)cc3)C(=C\C=C3/N(CCCCS(=O)(=O)O)c4ccc(S(=O)(=O)O)cc4C3(C)C)/CCC2)=[N+](CCCCCC(=O)NCCOCCOCCNC(=O)CCc2ccc(O)c(CN(CCN(CC(=O)O)Cc3cc(CCC(=O)NCCCCC(NC(=O)NC(CCC(=O)O)C(=O)O)C(=O)O)ccc3O)CC(=O)O)c2)c2ccc(S(=O)(=O)O)cc21 (stereo not shown) [PSMA-HBED-CC-PEG2-IRDye800CW, Glu-urea-Lys-HBED-CC-PEG2-IRDye800CW, reference compound], the “Specific cell surface bound” value (PSMA+ LNCaP cells) was “improved”, the Specific internalized (PSMA+ LNCaP cells) was “improved” and the “Specific cell surface bound” value (PSMA+ LNCaP cells; [3]) was 13.62 ± 4.79 % ID/10^5 cells. It also gave a Specific internalized (PSMA+ LNCaP cells; [3]) of 18.70 ± 7.03 % ID/10^5 cells, a Ki (PSMA) of 0.0175 ± 0.00498 µM and a tissue uptake at 1 h [1, 4] of 3.04 %ID/g. It also gave a tissue uptake at 2 h [1, 4] of 0.76 %ID/g, a tissue uptake at 1 h [1, 5] of 0.43 %ID/g and a tissue uptake at 2 h [1, 5] of 0.22 %ID/g. The tissue uptake at 1 h [1, 6] was 2.78 %ID/g, the tissue uptake at 2 h [1, 6] was 1 %ID/g and the tissue uptake at 1 h [1, 7] was 2.41 %ID/g. It also gave a tissue uptake at 2 h [1, 7] of 1.37 %ID/g, a tissue uptake at 1 h [1, 8] of 205 %ID/g and a tissue uptake at 2 h [1, 8] of 120 %ID/g. The tissue uptake at 1 h [1, 9] was 2.76 %ID/g, the tissue uptake at 2 h [1, 9] was 1.21 %ID/g and the tissue uptake at 1 h [1, 10] was 5.6 %ID/g. For the same compound, the tissue uptake at 2 h [1, 10] was 2.53 %ID/g, the tissue uptake at 1 h [1, 11] was 2.86 %ID/g and the tissue uptake at 2 h [1, 11] was 1.96 %ID/g. It also gave a tissue uptake at 1 h [1, 12] of 38.1 %ID/g, a tissue uptake at 2 h [1, 12] of 13.7 %ID/g and a tissue uptake at 2 h ([1]; in vivo, Organ distribution Tumor) of 7.94 %ID/g. It also gave a tissue uptake at 1 h ([1]; in vivo, Organ distribution Tumor (tumor accumulation)) of 13.7 %ID/g, a tissue to tissue ratio at 1 h ([1]; in vivo, Tumor-to-Organ ratio T/Blood) of 4.49 and a tissue to tissue ratio at 1 h ([1]; in vivo, Tumor-to-Organ ratio T/Brain) of 31.4. For the same compound, the tissue to tissue ratio at 1 h ([1]; in vivo, Tumor-to-Organ ratio T/Heart) was 4.92, the tissue to tissue ratio at 1 h ([1]; in vivo, Tumor-to-Organ ratio T/Intestine) was 5.66 and the tissue to tissue ratio at 1 h ([1]; in vivo, Tumor-to-Organ ratio T/Liver) was 4.94. The tissue to tissue ratio at 1 h ([1]; in vivo, Tumor-to-Organ ratio T/Lung) was 2.44, the tissue to tissue ratio at 1 h ([1]; in vivo, Tumor-to-Organ ratio T/Muscle) was 4.78 and the tissue to tissue ratio at 1 h ([1]; in vivo, Tumor-to-Organ ratio T/Spleen) was 0.36. For the same compound, the tissue to tissue ratio at 1 h ([1]; tumor and kidney, 68Ga labeled, 1 h p.i., read-out: Tumor-to-Organ ratio T/Kidney) was 0.07, the “Tumor-to-Organ ratio T/Kidney” value ([2]; 68Ga labeled, 1 h p.i.) was 0.07 and the “Tumor-to-Organ ratio T/Blood” value ([2]; mouse, in vivo) was 4.49. The “Tumor-to-Organ ratio T/Brain” value ([2]; mouse, in vivo) was 31.39, the “Tumor-to-Organ ratio T/Heart” value ([2]; mouse, in vivo) was 4.92 and the “Tumor-to-Organ ratio T/Intestine” value ([2]; mouse, in vivo) was 5.66. For the same compound, the “Tumor-to-Organ ratio T/Liver” value ([2]; mouse, in vivo) was 4.94, the “Tumor-to-Organ ratio T/Lung” value ([2]; mouse, in vivo) was 2.44 and the “Tumor-to-Organ ratio T/Muscle” value ([2]; mouse, in vivo) was 4.78. The “Tumor-to-Organ ratio T/Spleen” value ([2]; mouse, in vivo) was 0.36.

Reference: US12156920B2, “Double-labeled probe for molecular imaging and use thereof” (Deutsches Krebsforschungszentrum, priority 2017, dated 2024)
